Patent publication US10905653B2, “Sequentially decomposable polypeptide-based nanocarriers with protective shell and preparation thereof” (National Tsing Hua University, priority 2016, dated 2021)
Where a name gives a salt, the structure may show the parent alone. No end group written: not given here.

Columns and labels:
[1] = tested on: human breast adenocarcinoma cells MDA-MB-231; test: Cell viability assay (MTS assay), anti-tumor activity; assay type: cell-based; conditions: 10 μg/ml DOX equivalent, 24 hours treatment
Method: The anti-tumor activity of the drug-loaded polypeptide-based nanocarrier with protective shell of the present invention was evaluated in this example by cell viability assay (MTS assay) on human breast adenocarcinoma cells MDA-MB-231 cells. The cells were seeded in a 96-well plate (5×10^3 cells/well) and cultured in L-15 medium supplemented with 10% FBS and 1% penicillin and streptomycin at 37° C. for 1 day. Next, the medium was removed, and cells were treated with 100 μl L-15 medium containing DOX.HCl, the DOX-loaded polypeptide-based nanocarriers with protective shell of calcium phosphate and with LyP-1 peptide (M-DOX NP w/LyP-1), or the DOX-loaded polypeptide-based nanocarriers with protective shell of calcium phosphate and without LyP-1 peptide (M-DOX NP w/o LyP-1) at concentrations equivalent to 10 μg/ml DOX for 24 hours. The cells were rinsed with PBS 2 times and incubated with L-15 medium supplemented with 10% FBS and 1% penicillin and streptomycin at 37° C. for 24 hours, 48 hours, or 72 hours. To carry out the cell viability assay, the medium was first discarded from the 96-well plate, 10 μl MTS solution and 90 μl L-15 medium were added for incubation at 37° C. for 2.5 hours, and the solution was transferred to a new 96-well plate for measurement of light absorption at 490 nm. The assay was repeated 3 times.

[2] = TNBS assay, acidic hydrolysis of the cis-aconityl linkage; assay type: physicochemical
Method: TNBS (2,4,6-trinitrobenzene sulfonic acid) assay was performed in this example to analyze the acidic hydrolysis of the cis-aconityl linkage in the polypeptide-based long chain copolymer in conditions of different pH values. TNBS reacts with primary amines to yield a soluble orange colored product. Since PEG3400 released from hydrolyzed PEG3400-aconitic acid carries a free amine group at the end, the hydrolysis level of PEG3400-aconitic acid at different pH values is determined based on the amount of the colored product formed in TNBS assay. PEG3400-aconitic acid (2 mg/ml) was first dissolved in deionized water with a pH value of 5.0, 6.5, or 7.4 for hydrolysis. The hydrolysis reactions of 3 hours, 6 hours, 12 hours, and 24 fours were stopped by adjusting the pH value of the PEG3400-aconitic acid hydrolysate solutions to 8.2 and freezing. Sodium bicarbonate was added to the abovementioned hydrolysate solutions to a final concentration of 0.1 M (pH 8.2), and a 5% w/v TNBS solution was then added for reaction at 37° C. for 1 hour. The reaction was terminated using 1.0 N HCl, so that the volume ratio of the PEG3400-aconitic acid hydrolysate solution, the TNBS solution, and HCl was 4:2:1. Absorbance of the reaction-terminated solutions at 335 nm was measured with an enzyme-linked immunosorbent assay (ELISA) reader (Victor X3 2030 Multilabel Reader, PerkinElmer, Waltham, Mass., USA). According to the standard curve obtained from amine samples with known concentration, free amine group of PEG3400 in the reaction-terminated solutions was quantified and the hydrolysis level of PEG3400-aconitic acid at each pH was calculated.

Compound	viability of the breast adenocarcinoma cells ([1]; kept incubated for 72 hours) [%]	viability of the breast adenocarcinoma cells ([1]; first time point, post-incubation time not given) [%]	breakage of the cis-aconityl linkage ([2]; pH 5, within 12 hours) [%]	breakage of the cis-aconityl linkage ([2]; pH 6.5, within 12 hours) [%]	breakage of the cis-aconityl linkage ([2]; pH 6.5, within 24 hours) [%]	breakage of the cis-aconityl linkage ([2]; pH 7.4, within 12 hours)
COc1cccc2c1C(=O)c1c(O)c3c(c(O)c1C2=O)C[C@@](O)(C(=O)CO)C[C@@H]3O[C@H]1C[C@H](N)[C@H](O)[C@H](C)O1 [DOX.HCl, doxorubicin hydrochloride]	5.4	14.3				
PEG3400-aconityl linkage-polypeptide E15-H10-L10 (EEEEEEEEEEEEEEEHHHHHHHHHHLLLLLLLLLL; also: PEG3400 via aconityl linkage, site not given here) [polypeptide-based long chain copolymer]			43.33	13.28	21	about 1.97%
